Results from the supplement of paper PMC5998384.

How the values were obtained:
[1] = system: HeLa Kyoto; assay: solubility in G1/S (NP-40 vs SDS abundance) (log2 ratio); higher = more soluble; settings: cell cycle stage: G1/S
[2] = system: HeLa Kyoto; assay: melting temperature (median over replicates), in situ; higher = more thermally stable
[3] = system: HeLa Kyoto; assay: solubility change mitosis vs G1/S (difference of NP-40 vs SDS log2 ratios) (log2 ratio difference); higher = more soluble in mitosis
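Wherever melting temperature (median over replicates), in situ is given: HeLa Kyoto cells synchronized by double thymidine or nocodazole block, proteins quantified by TMT10plex mass spectrometry, three independent biological replicates.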
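Wherever solubility change mitosis vs G1/S (difference of NP-40 vs SDS log2 ratios) is given: synchronized HeLa Kyoto cells (double thymidine block for G1/S, nocodazole release for mitosis), protein amounts in NP-40 versus SDS lysates quantified by mass spectrometry, three biological replicates.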
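Wherever solubility in G1/S (NP-40 vs SDS abundance) is given: HeLa Kyoto cells arrested at G1/S by double thymidine block, proteins quantified by TMT10plex mass spectrometry in mild NP-40 versus SDS extracts, three biological replicates.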

Substance	solubility in G1/S (log2) [1]	melting temperature ([2]; cell cycle stage: G1/S)	melting temperature ([2]; cell cycle stage: mitosis)	solubility change mitosis (log2) [3]
MAADVSVTHRPPLSPKSGAEVEAGDAAERRAPEEELPPLDPEEIRKRLEHTERQFRNRRKILIRGLPGDVTNQEVHDLLSDYELKYCFVDKYKGTAFVTLLNGEQAEAAINAFHQSRLRERELSVQLQPTDALLCVANLPPSLTQQQFEELVRPFGSLERCFLVYSERTGQSKGYGFAEYMKKDSAARAKSDLLGKPLGPRTLYVHWTDAGQLTPALLHSRCLCVDRLPPGFNDVDALCRALSAVHSPTFCQLACGQDGQLKGFAVLEYETAEMAEEAQQQADGLSLGGSHLRVSFCAPGPPGRSMLAALIAAQATALNRGKGLLPEPNILQLLNNLGPSASLQLLLNPLLHGSAGGKQGLLGAPPAMPLLNGPALSTALLQLALQTQGQKKPGILGDSPLGALQPGAQPANPLLGELPAGGGLPPELPPRRGKPPPLLPSVLGPAGGDREALGLGPPAAQLTPPPAPVGLRGSGLRGPLSHFYSGSPTSYFTSGLQAGLKQSHLSKAIGSSPLGSGEGLLGLSPGPNGHSHLLKVRAGGGDMQGWEAPAPQRPLTRPALPSVSRPHWAARNAALPTCCPRPSPAQKAAMWASTPRASAATTRTPT [RAVER1]	0.344	46.3 °C	48.9 °C	0.165
MRLRVRLLKRTWPLEVPETEPTLGHLRSHLRQSLLCTWGYSSNTRFTITLNYKDPLTGDEETLASYGIVSGDLICLILQDDIPAPNIPSSTDSEHSSLQNNEQPSLATSSNQTSMQDEQPSDSFQGQAAQSGVWNDDSMLGPSQNFEAESIQDNAHMAEGTGFYPSEPMLCSESVEGQVPHSLETLYQSADCSDANDALIVLIHLLMLESGYIPQGTEAKALSMPEKWKLSGVYKLQYMHPLCEGSSATLTCVPLGNLIVVNATLKINNEIRSVKRLQLLPESFICKEKLGENVANIYKDLQKLSRLFKDQLVYPLLAFTRQALNLPDVFGLVVLPLELKLRIFRLLDVRSVLSLSAVCRDLFTASNDPLLWRFLYLRDFRDNTVRVQDTDWKELYRKRHIQRKESPKGRFVMLLPSSTHTIPFYPNPLHPRPFPSSRLPPGIIGGEYDQRPTLPYVGDPISSLIPGPGETPSQFPPLRPRFDPVGPLPGPNPILPGRGGPNDRFPFRPSRGRPTDGRLSFM [FBXO7]	0.02	48.1 °C	49.7 °C	-0.126
MTELAGASSSCCHRPAGRGAMQSVLHHFQRLRGREGGSHFINTSSPRGEAKMSITSDEVNFLVYRYLQESGFSHSAFTFGIESHISQSNINGTLVPPAALISILQKGLQYVEAEISINEDGTVFDGRPIESLSLIDAVMPDVVQTRQQAFREKLAQQQASAAAAAAAATAAATAATTTSAGVSHQNPSKNREATVNGEENRAHSVNNHAKPMEIDGEVEIPSSKATVLRGHESEVFICAWNPVSDLLASGSGDSTARIWNLNENSNGGSTQLVLRHCIREGGHDVPSNKDVTSLDWNTNGTLLATGSYDGFARIWTEDGNLASTLGQHKGPIFALKWNRKGNYILSAGVDKTTIIWDAHTGEAKQQFPFHSAPALDVDWQNNTTFASCSTDMCIHVCRLGCDRPVKTFQGHTNEVNAIKWDPSGMLLASCSDDMTLKIWSMKQEVCIHDLQAHNKEIYTIKWSPTGPATSNPNSNIMLASASFDSTVRLWDIERGVCTHTLTKHQEPVYSVAFSPDGKYLASGSFDKCVHIWNTQSGNLVHSYRGTGGIFEVCWNARGDKVGASASDGSVCVLDLRK [TBL1X]	-0.043		52.5 °C	-0.0781
MSDESASGSDPDLDPDVELEDAEEEEEEEEVAVEECDRDDEEDLLDDPSLEGMCGTEHAQLGEDGQQPPRCTSTTSSQSEPSEQLRRHQGKNLASEDPKKKRAQKPSHMRRNIRKLLREDQLEPVTKAAQQEELERRKRLEQQRKDYAAPIPTVPLEFLPEEIALRASDGPQLPPRVLAQEVICLDSSSGSEDEKSSRDEVIELSSGEEDTLHIVDSSESVSEDDEEEEKGGTHVNDVLNQRDALGRVLVNLNHPPEEENVFLAPQLARAVKPHQIGGIRFLYDNLVESLERFKTSSGFGCILAHSMGLGKTLQVISFIDVLFRHTPAKTVLAIVPVNTLQNWLAEFNMWLPPPEALPADNKPEEVQPRFFKVHILNDEHKTMASRAKVMADWVSEGGVLLMGYEMYRLLTLKKSFATGRPKKTKKRSHPVIIDLDEEDRQQEFRREFEKALCRPGPDVVICDEGHRIKNCQASTSQALKNIRSRRRVVLTGYPLQNNLIEYWCMVDFVRPDFLGTRQEFSNMFERPILNGQCIDSTPQDVRLMRYRSHVLHSLLEGFVQRRGHTVLKIHLPAKEENVILVRLSKIQRDLYTQFMDRFRDCGSSGWLGLNPLKAFCVCCKIWNHPDVLYEALQKESLANEQDLDVEELGSAGTSARCPPQGTKGKGEDSTLASSMGEATNSKFLQGVGFNPFQERGNNIVTYEWAKDLLTNYQTGVLENSPKMVLLFHLIEESVKLGDKILVFSQSLSTLALIEEFLGKREVPCPPGTEGQGAQKWVRNISYFRLDGSTPAFERERLINQFNDPSNLTTWLFLLSTRAGCLGVNLIGANRVVVFDASWNPCHDAQAVCRVYRYGQKKPCYIYRLVADYTLEKKIYDRQISKQGMSDRVVDDLNPMLNFTRKEVENLLHFVEKEPAPQVSLNVKGIKESVLQLACLKYPHLITKEPFEHESLLLNRKDHKLTKAEKKAAKKSYEEDKRTSVPYTRPSYAQYYPASDQSLTSIPAFSQRNWQPTLKGDEKPVASVRPVQSTPIPMMPRHVPLGGSVSSASSTNPSMNFPINYLQRAGVLVQKVVTTTDIVIPGLNSSTDVQARINAGESIHIIRGTKGTYIRTSDGRIFAVRATGKPKVPEDGRMAASGSQGPSCESTSNGRHSASSPKAPDPEGLARPVSPDSPEIISELQQYADVAAARESRQSSPSTNAALPGPPAQLMDSSAVPGTALGTEPRLGGHCLNSSLLVTGQPCGDRHPVLDLRGHKRKLATPPAAQESSRRRSRKGHLPAPVQPYEHGYPVSGGFAMPPVSLNHNLTTPFTSQAGENSLFMGSTPSYYQLSNLLADARLVFPVTTDPLVPAGPVSSSSTATSVTASNPSFMLNPSVPGILPSYSLPFSQPLLSEPRMFAPFPSPVLPSNLSRGMSIYPGYMSPHAGYPAGGLLRSQVPPFDSHEVAEVGFSSNDDEDKDDDVIEVTGK [RAD54L2]	-0.0448		49.7 °C	-0.143
MTGGRFDFDDGGTYCGGWEEGKAHGHGICTGPKGQGEYSGSWSHGFEVVGGYTWPSGNTYQGYWAQGKRHGLGVETKGKWMYRGEWSHGFKGRYGVRQSLCTPARYEGTWSNGLQDGYGVETYGDGGTYQGQWAGGMRHGYGVRQSVPYGMATVIRSPLRTSLASLRSEQSNGSVLHDAAAAADSPAGTRGGFVLNFHADAELAGKKKGGLFRRGSLLGSMKLRKSESKSSISSKRSSVRSDAAMSRISSSDANSTISFGDVDCDFCPVEDHVDATTTETYMGEWKNDKRNGFGVSERSNGMKYEGEWANNKRHGYGCTVFPDGSKEEGKYKNNILVRGIRKQLIPIRHTKTREKVDRAIEGAQRAAAMARTKVEIANSRTAHARAKADAADQAALAARQECDIARAVARELSPDFYQPGPDYVKQRFQEGVDAKENPEEKVPEKPPTPKESPHFYRKGTTPPRSPEASPKHSHSPASSPKPLKKQNPSSGARLNQDKRSVADEQVTAIVNKPLMSKAPTKEAGAVVPQSKYSGRHHIPNPSNGELHSQYHGYYVKLNAPQHPPVDVEDGDGSSQSSSALVHKPSANKWSPSKSVTKPVAKESKAEPKAKKSELAIPKNPASNDSCPALEKEANSGPNSIMIVLVMLLNIGLAILFVHFLT [JPH1]	-0.419		51.7 °C	0.108
DLG5	-0.385		47.5 °C	0.289
MMATPNQTACNAESPVALEEAKTSGAPGSPQTPPERHDSGGSLPLTPRMESHSEDEDLAGAVGGLGWNSRSPRTQSPGGCSAEAVLARKKHRRRPSKRKRHWRPYLELSWAEKQQRDERQSQRASRVREEMFAKGQPVAPYNTTQFLMNDRDPEEPNLDVPHGISHPGSSGESEAGDSDGRGRAHGEFQRKDFSETYERFHTESLQGRSKQELVRDYLELEKRLSQAEEETRRLQQLQACTGQQSCRQVEELAAEVQRLRTENQRLRQENQMWNREGCRCDEEPGT [HEXIM2]	0.492	54.6 °C	53.4 °C	0.139
MQNEPLTPGYHGFPARDSQGNQEPTTTPDAMVQPFTTIPFPPPPQNGIPTEYGVPHTQDYAGQTGEHNLTLYGSTQAHGEQSSNSPSTQNGSLTTEGGAQTDGQQSQTQSSENSESKSTPKRLHVSNIPFRFRDPDLRQMFGQFGKILDVEIIFNERGSKGFGFVTFENSADADRAREKLHGTVVEGRKIEVNNATARVMTNKKMVTPYANGWKLSPVVGAVYGPELYAASSFQADVSLGNDAAVPLSGRGGINTYIPLISLPLVPGFPYPTAATTAAAFRGAHLRGRGRTVYGAVRAVPPTAIPAYPGVVYQDGFYGADLYGGYAAYRYAQPATATAATAAAAAAAAYSDGYGRVYTADPYHALAPAASYGVGAVASLYRGGYSRFAPY [RBFOX2]	0.223	49.8 °C		0.0624
MSATRAKKVKMATKSCPECDQQVPVACKSCPCGYIFISRKLLNAKHSEKSPPSTENKHEAKRRRTERVRREKINSTVNKDLENRKRSRSNSHSDHIRRGRGRPKSASAKKHEEEREKQEKEIDIYANLSDEKAFVFSVALAEINRKIINQRLIL [C16ORF87]	0.019		50.6 °C	0.198
PTPRS	0.148	51.6 °C		-0.268
BAZ2A	-0.382	48.3 °C	49.6 °C	0.217
MLQGHSSVFQALLGTFFTWGMTAAGAALVFVFSSGQRRILDGSLGFAAGVMLAASYWSLLAPAVEMATSSGGFGAFAFFPVAVGFTLGAAFVYLADLLMPHLGAAEDPQTTLALNFGSTLMKKKSDPEGPALLFPESELSIRIGRAGLLSDKSENGEAYQRKKAAATGLPEGPAVPVPSRGNLAQPGGSSWRRIALLILAITIHNVPEGLAVGVGFGAIEKTASATFESARNLAIGIGIQNFPEGLAVSLPLRGAGFSTWRAFWYGQLSGMVEPLAGVFGAFAVVLAEPILPYALAFAAGAMVYVVMDDIIPEAQISGNGKLASWASILGFVVMMSLDVGLG [SLC39A11]	0.00506	56 °C	51.9 °C	-0.134
MAEYLASIFGTEKDKVNCSFYFKIGACRHGDRCSRLHNKPTFSQTIALLNIYRNPQNSSQSADGLRCAVSDVEMQEHYDEFFEEVFTEMEEKYGEVEEMNVCDNLGDHLVGNVYVKFRREEDAEKAVIDLNNRWFNGQPIHAELSPVTDFREACCRQYEMGECTRGGFCNFMHLKPISRELRRELYGRRRKKHRSRSRSRERRSRSRDRGRGGGGGGGGGGGGRERDRRRSRDRERSGRF [U2AF1]	-0.457	46.8 °C	48.2 °C	0.342
MKVLLLKDAKEDDCGQDPYIRELGLYGLEATLIPVLSFEFLSLPSFSEKLSHPEDYGGLIFTSPRAVEAAELCLEQNNKTEVWERSLKEKWNAKSVYVVGNATASLVSKIGLDTEGETCGNAEKLAEYICSRESSALPLLFPCGNLKREILPKALKDKGIAMESITVYQTVAHPGIQGNLNSYYSQQGVPASITFFSPSGLTYSLKHIQELSGDNIDQIKFAAIGPTTARALAAQGLPVSCTAESPTPQALATGIRKALQPHGCC [UROS]	0.234	51.5 °C	52.4 °C	0.14
